To fix the notation:
B1: GpH7-A5/GpH7-B3 variant E333_18N/GpL16-k0 (antibody, human IgG1, kappa)
heavy 1: not shown
heavy 2: not shown
light: DIVMTQSPLSLPVTPGEPASISCQASESLVHSNRNTYLHWYLQKPGQSPQLLIYKVSNRFSGVPDRFSGSGSGTDFTLKISRVEAEDVGVYYCSQNTHVPPTFGQGTKVEIERTVAAPSVFIFPPSDEQLKSGTASVVCLLNNFYPREAKVQWKVDNALQSGNSQESVTEQDSKDSTYSLSSTLTLSKADYEKHKVYACEVTHQGLSSPVTKSFNRGEC
notes: He Ab: heterodimerized anti-glypican-3 IgG1, substitution in one H chain only; also called He Ab E333N
B2: GpH7-A5/GpH7-B3 variant E333_13S/GpL16-k0 (antibody, human IgG1, kappa)
heavy 1: not shown
heavy 2: not shown
light: B1 light
notes: He Ab: heterodimerized anti-glypican-3 IgG1, substitution in one H chain only; also called He Ab E333S
B3: GpH7-A5/GpH7-B3 variant L328_01G/GpL16-k0 (antibody, human IgG1, kappa)
heavy 1: not shown
heavy 2: not shown
light: B1 light
notes: He Ab: heterodimerized anti-glypican-3 IgG1, substitution in one H chain only; also called He Ab L328G
B4: GpH7-A5/GpH7-B3 variant I336_20W/GpL16-k0 (antibody, human IgG1, kappa)
heavy 1: not shown
heavy 2: not shown
light: B1 light
notes: He Ab: heterodimerized anti-glypican-3 IgG1, substitution in one H chain only; also called He Ab I336W
B5: GpH7-A5/GpH7-B3 variant P329_13S/GpL16-k0 (antibody, human IgG1, kappa)
heavy 1: not shown
heavy 2: not shown
light: B1 light
notes: He Ab: heterodimerized anti-glypican-3 IgG1, substitution in one H chain only; also called He Ab P329S
B6: GpH7-A5/GpH7-B3 variant P329_14T/GpL16-k0 (antibody, human IgG1, kappa)
heavy 1: not shown
heavy 2: not shown
light: B1 light
notes: He Ab: heterodimerized anti-glypican-3 IgG1, substitution in one H chain only; also called He Ab P329T
B7: GpH7-A5/GpH7-B3 variant P329_11K/GpL16-k0 (antibody, human IgG1, kappa)
heavy 1: not shown
heavy 2: not shown
light: B1 light
notes: He Ab: substitution in one H chain only; also called He Ab P329K
B8: GpH7-A5/GpH7-B3 variant P329_15Y/GpL16-k0 (antibody, human IgG1, kappa)
heavy 1: not shown
heavy 2: not shown
light: B1 light
notes: He Ab: heterodimerized anti-glypican-3 IgG1, substitution in one H chain only; also called He Ab P329Y
B9: GpH7-A5/GpH7-B3 variant I336_15Y/GpL16-k0 (antibody, human IgG1, kappa)
heavy 1: not shown
heavy 2: not shown
light: B1 light
notes: He Ab: heterodimerized anti-glypican-3 IgG1, substitution in one H chain only; also called He Ab I336Y
B10: GpH7-A5/GpH7-B3 variant I332_12R/GpL16-k0 (antibody, human IgG1, kappa)
heavy 1: not shown
heavy 2: not shown
light: B1 light
notes: He Ab: heterodimerized anti-glypican-3 IgG1, substitution in one H chain only; also called He Ab I332R
B11: GpH7-A5/GpH7-B3 variant P329_10E/GpL16-k0 (antibody, human IgG1, kappa)
heavy 1: not shown
heavy 2: not shown
light: B1 light
notes: He Ab: substitution in one H chain only; also called He Ab P329E
B12: GpH7-A5/GpH7-B3 variant P329_09D/GpL16-k0 (antibody, human IgG1, kappa)
heavy 1: not shown
heavy 2: not shown
light: B1 light
notes: He Ab: substitution in one H chain only; also called He Ab P329D
B13: GpH7-A5/GpH7-B3 variant I336_02A/GpL16-k0 (antibody, human IgG1, kappa)
heavy 1: not shown
heavy 2: not shown
light: B1 light
notes: He Ab: heterodimerized anti-glypican-3 IgG1, substitution in one H chain only; also called He Ab I336A
B14: GpH7-A5/GpH7-B3 variant P329_12R/GpL16-k0 (antibody, human IgG1, kappa)
heavy 1: not shown
heavy 2: not shown
light: B1 light
notes: He Ab: substitution in one H chain only; also called He Ab P329R
B15: GpH7-A5/GpH7-B3 variant P329_06M/GpL16-k0 (antibody, human IgG1, kappa)
heavy 1: not shown
heavy 2: not shown
light: B1 light
notes: He Ab: heterodimerized anti-glypican-3 IgG1, substitution in one H chain only; also called He Ab P329M

The target of the first experiment is T1, FcγRIa extracellular domain with C-terminal His tag (human, UniProt P12314 16-292).
T1 construct: extracellular domain; Soluble receptor expressed in FreeStyle293 cells; analyte in Biacore; also called FcgRI; FcgRIa; not shown: His tag at the C terminus
T1 sequence (P12314 16-292): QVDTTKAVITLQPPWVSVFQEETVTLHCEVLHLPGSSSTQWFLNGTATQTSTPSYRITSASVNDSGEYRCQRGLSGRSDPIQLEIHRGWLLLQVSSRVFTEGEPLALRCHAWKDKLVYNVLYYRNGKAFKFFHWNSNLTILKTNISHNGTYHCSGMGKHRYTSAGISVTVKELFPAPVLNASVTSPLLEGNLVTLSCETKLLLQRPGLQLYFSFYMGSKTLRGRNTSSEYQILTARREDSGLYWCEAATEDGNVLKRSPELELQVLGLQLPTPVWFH
In words: SPR (Biacore); He/Con_1a divided by He/Con_2b (FcγRIIb). The procedure:
(§1) The heterodimerized antibodies He Abs in which one of the H chains was introduced with an alteration were assayed for their binding activities to each activating FcγR and inhibitory FcγR according to the method described in Example 4. […] The activating FcγRs in FIGS. 26, 27, 28, and 29 are FcγRIa, FcγRIIa (R), FcγRIIa (H), and FcγRIIIa, respectively.
(§2) Analysis of interaction between objective antibody and the FcγR was carried out using Biacore T100 (GE Healthcare). HBS-EP+ (GE Healthcare) was used as the running buffer, and the measurement temperature was set to 25° C. Chips produced by immobilizing the antigen peptide by the amine coupling method to a Series S Sencor Chip CM5 (GE Healthcare), or alternatively, chips produced by allowing preliminarily biotinylated antigen peptides to interact with and immobilize onto a Series S Sensor Chip SA (certified) (GE Healthcare) were used. Antibodies of interest were captured onto an antigen peptide-immobilized chip, and allowed to interact to each FcγR diluted with running buffer. To regenerate and repeatedly use the chip, the antibodies captured on the chip were washed off by reacting 10 mM glycine-HCl, pH 1.5.
(SPR reads the build-up and loss of mass on a sensor chip optically.)
As to B1, the “He_1a/2b (Ia/IIb)” value was found to be 1.27.
For B2, the “He_1a/2b (Ia/IIb)” value came to 1.26.
Same read-out and setting: for B3 the value was 1.21; for B4, 4.28; for B5, 2.27.
As for B6, the “He_1a/2b (Ia/IIb)” value came out at 2.37.
In the case of B7, the “He_1a/2b (Ia/IIb)” value was 4.17.
For B8, the “He_1a/2b (Ia/IIb)” value was found to be 2.09.
Regarding B9, the “He_1a/2b (Ia/IIb)” value is 1.51.
For the molecule B10, the “He_1a/2b (Ia/IIb)” value was 2.05.
For the molecule B11, the “He_1a/2b (Ia/IIb)” value turned out to be 1.5.
Take B12: the “He_1a/2b (Ia/IIb)” value is 1.45.
Take B13: the “He_1a/2b (Ia/IIb)” value came out at 1.25.
On to B14, for which the “He_1a/2b (Ia/IIb)” value was 4.22.
As for B15, the “He_1a/2b (Ia/IIb)” value was determined as 2.94.

The target of another experiment is T1, FcγRIa extracellular domain with …. In words: SPR (Biacore), antibody captured on antigen peptide chip, FcγR as analyte; binding relative to GpH7-A5/GpH7-B3/GpL16-k0 = 100. The procedure:
as §1, §2
For B1, the “He/Con_1a (Ia binding)” value is 96.6 % of control (control = 100).
B2: the “He/Con_1a (Ia binding)” value is 103 % of control (control = 100).
Turning to B3, the “He/Con_1a (Ia binding)” value was 97.2 % of control (control = 100).
For the molecule B4, the “He/Con_1a (Ia binding)” value was 86.7 % of control (control = 100).
Consider B5, for which the “He/Con_1a (Ia binding)” value was 93.3 % of control (control = 100).
For B6, the “He/Con_1a (Ia binding)” value was 89.7 % of control (control = 100).
Same read-out and setting: for B7 the value was 70.4 % of control (control = 100).
As for B8, the “He/Con_1a (Ia binding)” value is 95.6 % of control (control = 100).
As to B9, the “He/Con_1a (Ia binding)” value is 103 % of control (control = 100).
For the molecule B10, the “He/Con_1a (Ia binding)” value was 100 % of control (control = 100).
Turning to B11, the “He/Con_1a (Ia binding)” value is 78.8 % of control (control = 100).
On to B12, for which the “He/Con_1a (Ia binding)” value is 77.6 % of control (control = 100).
Turning to B13, the “He/Con_1a (Ia binding)” value is 106 % of control (control = 100).
Still for that read-out and setting: for B14 the value was 74.3 % of control (control = 100); for B15, 85.3 % of control (control = 100).

A further experiment concerns the target T2, FcγRIIb extracellular domain with C-terminal His tag (human, UniProt P31994 43-217).
T2 construct: extracellular domain; Soluble receptor expressed in FreeStyle293 cells; analyte in Biacore; also called FcgRIIb; 2b; not shown: His tag at the C terminus
T2 sequence (looked up): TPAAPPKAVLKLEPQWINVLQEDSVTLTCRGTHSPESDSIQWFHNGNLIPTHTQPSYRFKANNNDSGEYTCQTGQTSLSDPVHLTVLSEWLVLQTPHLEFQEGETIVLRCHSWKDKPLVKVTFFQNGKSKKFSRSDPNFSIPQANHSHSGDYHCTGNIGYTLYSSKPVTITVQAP
Described as above. As to the method: as §1, §2
Turning to B1, the “He/Con_2b (IIb binding)” value is 76.1 % of control (control = 100).
Take B2: the “He/Con_2b (IIb binding)” value was 81.8 % of control (control = 100).
The same measure, in the same setting: under B3 stands 80.2 % of control (control = 100); under B4, 20.3 % of control (control = 100).
Same read-out and setting: for B5 the value was 41 % of control (control = 100).
Same read-out and setting: for B6 the value was 37.9 % of control (control = 100); for B7, 16.9 % of control (control = 100); for B8, 45.7 % of control (control = 100).
B9: the “He/Con_2b (IIb binding)” value is 68.2 % of control (control = 100).
For the molecule B10, the “He/Con_2b (IIb binding)” value was 48.9 % of control (control = 100).
On to B11, for which the “He/Con_2b (IIb binding)” value was 52.7 % of control (control = 100).
For the molecule B12, the “He/Con_2b (IIb binding)” value was 53.5 % of control (control = 100).
The same measure, in the same setting: for B13 the value was 84.9 % of control (control = 100); for B14, 17.6 % of control (control = 100); for B15, 29.1 % of control (control = 100).

The record behind these values is US20180155451A1 (published 2018).
